Data as given in patent US20160177307.

Assays:
[1] = test system: T1, VEGF-121 (Homo sapiens), P15692-9; test: filter
T1 sequence: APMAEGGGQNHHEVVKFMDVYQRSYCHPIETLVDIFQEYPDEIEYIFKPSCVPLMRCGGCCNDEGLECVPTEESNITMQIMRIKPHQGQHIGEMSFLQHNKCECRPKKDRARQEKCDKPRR

[2] = target: PDGF-BB (platelet-derived growth factor BB) (Homo sapiens) (UniProt P01127); test: filter
[3] = Tyr, MBn, FBn, Ib, 2Nap, Pe, Th, NE dU, Heg, 2'-OMe
[4] = Trp, Ib, NE, Th, Pe, MBn dU, Heg, 2'-OMe

PDGF-BB (platelet-derived growth factor BB) (Homo sapiens), sequence (P01127 82-190): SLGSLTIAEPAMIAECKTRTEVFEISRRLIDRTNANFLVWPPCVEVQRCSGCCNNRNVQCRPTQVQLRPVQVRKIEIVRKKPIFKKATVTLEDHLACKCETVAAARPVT

Sequence: AGCCGTTAAGTGCTTGTAGGATTTAAATGGA [4867-31_97]
- Kd ([1]; P=Nap-dU, C3 spacer at 8): 7.3 nM

Sequence: AGCCGTTAAGTGCTTGTAGGATTTAAATGGA [4867-31_101]
- Kd ([1]; P=Nap-dU): 5.89 nM

Sequence: AGCCGTTCAAGTGCTTGTAGATTTAAATGGA [4867-31_99]
- Kd ([1]; P=Nap-dU, C3 spacer at 20): 0.22 nM

Sequence: AGCCGTTCAAGTGCTTGTAGGATTTAAATGGA [4867-31_66]
- Kd ([1]; P=Nap-dU, 2'-OMe G2): 0.17 nM

Sequence: AGCCGTTCAAGTGCTTGTAGGATTTAAATGGA [4867-31_67]
- Kd ([1]; P=Nap-dU, 2'-OMe C3 (inferred, superscript lost)): 0.33 nM

Sequence: AGCCGTTCAAGTGCTTGTAGGATTTAAATGGA [4867-31_68]
- Kd ([1]; P=Nap-dU, 2'-OMe C4 (inferred, superscript lost)): 7.55 nM

Sequence: AGCCGTTCAAGTGCTTGTAGGATTTAAATGGA [4867-31_72]
- Kd ([1]; P=Nap-dU, 2'-OMe C8 (inferred, superscript lost)): 0.21 nM

Sequence: AGCCGTTCAAGTGCTTGTAGGATTTAAATGGA [4867-31_73]
- Kd ([1]; P=Nap-dU, 2'-OMe A9): 5.99 nM

Sequence: AGCCGTTCAAGTGCTTGTAGGATTTAAATGGA [4867-31_74]
- Kd ([1]; P=Nap-dU, 2'-OMe A10): 3.14 nM

Sequence: AGCCGTTCAAGTGCTTGTAGGATTTAAATGGA [4867-31_75]
- Kd ([1]; P=Nap-dU, 2'-OMe G11): 0.15 nM

Sequence: AGCCGTTCAAGTGCTTGTAGGATTTAAATGGA [4867-31_76]
- Kd ([1]; 2'-OMe-U at 12 in place of NapdU, other P are NapdU, 2'-OMe-U for NapdU): 22.9 nM

Sequence: AGCCGTTCAAGTGCTTGTAGGATTTAAATGGA [4867-31_77]
- Kd ([1]; P=Nap-dU, 2'-OMe G13): 6.64 nM

Sequence: AGCCGTTCAAGTGCTTGTAGGATTTAAATGGA [4867-31_78]
- Kd ([1]; P=Nap-dU, 2'-OMe C14): 0.24 nM

Sequence: AGCCGTTCAAGTGCTTGTAGGATTTAAATGGA [4867-31_81]
- Kd ([1]; P=Nap-dU, 2'-OMe G17): 0.44 nM

Sequence: AGCCGTTCAAGTGCTTGTAGGATTTAAATGGA [4867-31_83]
- Kd ([1]; P=Nap-dU, 2'-OMe A19): 0.1 nM

Sequence: AGCCGTTCAAGTGCTTGTAGGATTTAAATGGA [4867-31_84]
- Kd ([1]; P=Nap-dU, 2'-OMe G20): 0.21 nM

Sequence: AGCCGTTCAAGTGCTTGTAGGATTTAAATGGA [4867-31_85]
- Kd ([1]; P=Nap-dU, 2'-OMe G21): 25.8 nM

Sequence: AGCCGTTCAAGTGCTTGTAGGATTTAAATGGA [4867-31_86]
- Kd ([1]; P=Nap-dU, 2'-OMe A22): 6.21 nM

Sequence: AGCCGTTCAAGTGCTTGTAGGATTTAAATGGA [4867-31_90]
- Kd ([1]; P=Nap-dU, 2'-OMe A26): 2.85 nM

Sequence: AGCCGTTCAAGTGCTTGTAGGATTTAAATGGA [4867-31_91]
- Kd ([1]; P=Nap-dU, 2'-OMe A27): 0.35 nM

Sequence: AGCCGTTCAAGTGCTTGTAGGATTTAAATGGA [4867-31_92]
- Kd ([1]; P=Nap-dU, 2'-OMe A28): 8.87 nM

Sequence: TTACGTTACACGCGTTTATAGCG [4149-8_196]
- Kd ([2]; Bn-dU, 2NE-dU17, Heg5, 2'-OMe A3, A11, A21, G24): > 10 nM

Sequence: TTACGTTACACGCGTTTATAGCG [4149-8_244]
- Kd ([2]; Bn-dU, Heg5, 2'-OMe A3, A9, A11, A21, G24): > 10 nM

Sequence: TTACGTTACACGCGTTTATAGCG [4149-8_250]
- Kd [2, 3]: > 10 nM

Sequence: TTACGTTACACGCGTTTATAGCG [4149-8_251]
- Kd [2, 3]: > 10 nM

Sequence: TTACGTTACACGCGTTTATAGCG [4149-8_252]
- Kd [2, 4]: > 10 nM

Sequence: TTACGTTACACGCGTTTATAGCG [4149-8_253]
- Kd [2, 4]: > 10 nM

Sequence: TTACGTTACACGCGTTTATAGCG [4149-8_258]
- Kd ([2]; Bn-dU, 2'-OMe U7, Ib-dU8, Heg5, 2'-OMe A3, A11, A21, G24): > 10 nM

Sequence: TTACGTTACACGCGTTTATAGCG [4149-8_276]
- Kd ([2]; Bn-dU, FBn-dU7, Ib-dU8, Pe-dU17, Th-dU18, Heg5, 2'-OMe A3, A11, A21, G24): > 10 nM

Sequence: TTACGTTACACGCGTTTATAGCG [4149-8_277]
- Kd ([2]; Bn-dU, Tyr-dU1, Ib-dU8, Pe-dU17, Th-dU18, Heg5, 2'-OMe A3, A11, A21, G24): > 10 nM

Sequence: TTACGTTACACGCGTTTATAGCG [4149-8_278]
- Kd ([2]; Bn-dU, Tyr-dU1, FBn-dU7, Ib-dU8, 2Nap-dU16, Pe-dU17, Th-dU18, Heg5, 2'-OMe A3, A11, A21, G24): > 10 nM

Sequence: TTACGTTACACGCGTTTATAGCG [4149-8_305]
- Kd ([2]; Bn-dU, 2'-OMe Bn-U1, Heg5, 2'-OMe A3, A11, A21, G24): > 10 nM

Sequence: TTACGTTACACGCGTTTATAGCG [4149-8_306]
- Kd ([2]; Bn-dU, 2'-OMe Bn-U2, Heg5, 2'-OMe A3, A11, A21, G24): > 10 nM

Sequence: TTACGTTACACGCGTTTATAGCG [4149-8_309]
- Kd ([2]; Bn-dU, 2'-OMe Bn-U16, Heg5, 2'-OMe A3, A11, A21, G24): > 10 nM

Sequence: TTACGTTACACGCGTTTATAGCG [4149-8_310]
- Kd ([2]; Bn-dU, 2'-OMe Bn-U17, Heg5, 2'-OMe A3, A11, A21, G24): > 10 nM

Sequence: TTACGTTACACGCGTTTATAGCG [4149-8_348]
- Kd ([2]; Bn-dU, Pe-dU17, 2'-F A9, Heg, 2'-OMe): > 10 nM

Sequence: TTACGTTACACGCGTTTATAGCG [4149-8_350]
- Kd ([2]; Bn-dU, Pe-dU17, 2'-F C10, Heg, 2'-OMe): > 10 nM

Sequence: TTACGTTACACGCGTTTATAGCG [4149-8_351]
- Kd ([2]; Bn-dU, Pe-dU17, 2'-F C14, Heg, 2'-OMe): > 10 nM

Sequence: TTACGTTACACGCGTTTATAGCG [4149-8_364]
- Kd ([2]; Bn-dU, dT8, Heg5, 2'-OMe A3, A11, A21, G24): > 10 nM

Sequence: TTACGTTACACGCGTTTATAGCGNT [4149-8_339]
- Kd ([2]; 4149-8_260 3'-3' dimer, C3, doubler): 0.0062 nM

Sequence: TTACGTTACACGCGTTTATAGCGNT [4149-8_340]
- Kd ([2]; 4149-8_260 3'-3' dimer, Heg, doubler): 0.0189 nM

Sequence: TTACGTTACACGCGTTTATAGCGNT [4149-8_341]
- Kd ([2]; 4149-8_260 3'-3' dimer, 2 Heg, doubler): 0.0272 nM

Sequence: TTACGTTACACGCGTTTATAGCGNT [4149-8_342]
- Kd ([2]; 4149-8_260 3'-3' dimer, 3 Heg, doubler): 0.0181 nM

Sequence: TTACGTTACCGCGTTTATAGCG [4149-8_379]
- Kd ([2]; BndU at 1,8,16,17,20, MBndU at 2, Heg at 5, C3 at 11, 2'-OMe at A3,C12,A19,A21,G24 and 2'-OMe-BnU at 7,18, Table 30 gives 1.6E-11, Table 31 5.2E-11): 0.02 nM

Sequence: TTACGTTACCGCGTTTATAGCG [4149-8_391]
- Kd ([2]; BndU, PS 9,15, 2'-OMe, Heg 5, C3 11): 0.012 nM

Sequence: TTACGTTACCGCGTTTATAGCG [4149-8_418]
- Kd ([2]; as 4149-8_379, 2'-OMe 15): 0.21 nM

Sequence: TTACGTTACCGCGTTTATAGCG [4149-8_419]
- Kd ([2]; as 4149-8_379, 2'-OMe 15, NapdU 16): 1.3 nM

Sequence: TTACGTTACCGCGTTTATAGCG [4149-8_420]
- Kd ([2]; as 4149-8_379, 2'-OMe 15, iBudU 16): 1.4 nM

Sequence: TTACGTTACCGCGTTTATAGCG [4149-8_421]
- Kd ([2]; as 4149-8_379, 2'-OMe 13): 0.019 nM

Sequence: TTACGTTACCGCGTTTATAGCG [4149-8_422]
- Kd ([2]; as 4149-8_379, 2'-OMe 13,15): 0.27 nM

Sequence: TTACGTTACCGCGTTTATAGCG [4149-8_423]
- Kd ([2]; as 4149-8_379, 2'-OMe 13, NapdU 16): 0.033 nM

Sequence: TTACGTTACCGCGTTTATAGCG [4149-8_424]
- Kd ([2]; as 4149-8_379, 2'-OMe 13,14): 6.6 nM

Sequence: TTACGTTACCGCGTTTATAGCG [4149-8_425]
- Kd ([2]; as 4149-8_379, 2'-OMe 9): 0.91 nM

Sequence: TTACGTTACCGCGTTTATAGCG [4149-8_426]
- Kd ([2]; as 4149-8_379 plus 2'-OMe A9,G13 or G15 as printed in SEQ:409): 42 nM

Sequence: TTACGTTACCGCGTTTATAGCG [4149-8_431]
- Kd ([2]; as 4149-8_379, NapdU 16, PS 9,15,17): 0.043 nM

Sequence: TTACGTTACCGCGTTTATAGCG [4149-8_432]
- Kd ([2]; as 4149-8_379, PS 9,15,17): 0.029 nM

Sequence: TTACGTTACCGCGTTTATAGCG [4149-8_433]
- Kd ([2]; as 4149-8_379, NapdU 16, PS 9,15): 0.066 nM

Sequence: TTACGTTACCGCGTTTATAGCG [4149-8_434]
- Kd ([2]; as 4149-8_379, PS 9,15): 0.032 nM

Sequence: TTACGTTACCGCGTTTATAGCG [4149-8_435]
- Kd ([2]; as 4149-8_379, BndU 2, NapdU 16, PS 9,15,17): 0.016 nM

Sequence: TTACGTTACCGCGTTTATAGCG [4149-8_436]
- Kd ([2]; as 4149-8_379, BndU 2, PS 9,15,17): 0.0077 nM

Sequence: TTACGTTACCGCGTTTATAGCG [4149-8_437]
- Kd ([2]; as 4149-8_379, BndU 2, NapdU 16, PS 9,15): 0.0074 nM

Sequence: TTACGTTACCGCGTTTATAGCG [4149-8_453]
- Kd ([2]; BndU, NapdU 16, 2'-OMe 3,7,12,13,18,19,21,24, PS 9,15,16,17, Heg 5, C3 11): 0.002 nM

Sequence: TTACGTTACCGCGTTTATAGCG [4149-8_454]
- Kd ([2]; BndU at 1,2,8,17,20, NapdU at 16, Heg 5, C3 11, 2'-OMe at 3,7,12,18,19,21,24, PS 3' of 9,15,16,17, 3'-idT): 0.0013 nM

Sequence: TTACGTTACCGCGTTTATAGCG [4149-8_455]
- Kd ([2]; BndU, NapdU 16, 2'-OMe 3,7,12,13,18,19,21,24, PS 8,9,15,16,17, Heg 5, C3 11): 0.017 nM

Sequence: TTACGTTACCGCGTTTATAGCG [4149-8_456]
- Kd ([2]; BndU, NapdU 16, 2'-OMe 3,7,12,18,19,21,24, PS 8,9,15,16,17, Heg 5, C3 11): 0.027 nM

Sequence: TTACGTTACGCGTTTATAGCG [4149-8_304]
- Kd ([2]; Bn-dU, C3 linkers, 2'-OMe): > 10 nM

Sequence: TTCGACTACGTTACACGCGTTTATAGCG [4149-8_66]
- Kd ([2]; Bn-dU, C3 at 3): > 10 nM
